According to article PMC10436073, “Saccharomyces cerevisiae NRE1 and IRC24 Encode Paralogous Benzil Oxidoreductases” (microPublication Biology, 2023):

Substrate: O=C(C(=O)c1ccccc1)c1ccccc1
Experiment: purified protein
Assay type: biochemical, Saccharomyces cerevisiae
Settings: NADPH 0.075 mM (preferred cofactor; NADH also measured), 10 mM Tris-HCl pH 8.0, 30 C, apparent Km

B1: Nre1p (Saccharomyces cerevisiae S288C) (protein)
chain: MGKVILVTGVSRGIGKSIVDVLFSLDKDTVVYGVARSEAPLKKLKEKYGDRFFYVVGDITEDSVLKQLVNAAVKGHGKIDSLVANAGVLEPVQNVNEIDVNAWKKLYDINFFSIVSLVGIALPELKKTNGNVVFVSSDACNMYFSSWGAYGSSKAALNHFAMTLANEERQVKAIAVAPGIVDTDMQVNIRENVGPSSMSAEQLKMFRGLKENNQLLDSSVPATVYAKLALHGIPDGVNGQYLSYNDPALADFMP
  Km: 390 µM

B2: Irc24p (Saccharomyces cerevisiae S288C) (protein)
chain: MGKVILITGASRGIGLQLVKTVIEEDDECIVYGVARTEAGLQSLQREYGADKFVYRVLDITDRSRMEALVEEIRQKHGKLDGIVANAGMLEPVKSISQSNSEHDIKQWERLFDVNFFSIVSLVALCLPLLKSSPFVGNIVFVSSGASVKPYNGWSAYGCSKAALNHFAMDIASEEPSDKVRAVCIAPGVVDTQMQKDIRETLGPQGMTPKALERFTQLYKTSSLLDPKVPAAVLAQLVLKGIPDSLNGQYLRYNDERLGPVQG
  Km: 420 µM
